Reference: PMC9367475

Columns and labels:
[1] = target: DC-SIGN on THP-1 cells induced with PMA and IL-4 (DC-THP-1) (human (endogenous in THP-1)) (UniProt Q9NNX6)
[2] = target: human DC-SIGN expressed on HEK 293T cells (DC-HEK) (human) (UniProt Q9NNX6)
[3] = target: DC-SIGN on THP-1 cells induced with PMA and IL-4 (DC-THP-1) (human (endogenous in THP-1)) (UniProt Q9NNX6); assay: cell binding assay (immunofluorescence read on a microplate reader); DC-HEK or DC-THP-1 cells in microtiter wells (1 x 10^5 cells/well); spike pseudotypes pre-incubated with or without rfhSP-D (20 µg/ml) added for 2 h at room temperature; fixed, anti-spike and Alexa Fluor 488 secondary antibody
[4] = target: human DC-SIGN expressed on HEK 293T cells (DC-HEK) (human) (UniProt Q9NNX6); assay: as above

Substance	luciferase reporter activity (pseudotype transduction of DC-THP-1 cells), with rfhSP-D 20 µg/ml against untreated [1] [%]	luciferase reporter activity (pseudotype transduction of DC-HEK cells), with rfhSP-D 20 µg/ml against untreated [2] [%]	increase of binding with rfhSP-D (20 µg/ml) against untreated [3] [%]	increase of binding with rfhSP-D (20 µg/ml) against untreated [4] [%]
SARS-CoV-2 spike protein on lentiviral pseudotypes (from UniProt P0DTC2 14-1273) (natural protein)	90	190	–	–
SARS-CoV-2 spike protein on lentiviral pseudotypes (from UniProt P0DTC2 14-1273) (natural protein; other documents disagree on this pair)	–	–	25	50
